Measurements as given in patent publication CN113929777A (DONGGUAN PENGZHI BIOTECHNOLOGY CO LTD, dated 2022).

Target: T1, 重组肌红蛋白(自产) (UniProt P02144 2-154)
T1 construct: The ELISA names it 重组肌红蛋白 and the BLI assay names it MYO蛋白; both are treated as one molecule; also called MYO蛋白; Mb
T1 sequence (looked up): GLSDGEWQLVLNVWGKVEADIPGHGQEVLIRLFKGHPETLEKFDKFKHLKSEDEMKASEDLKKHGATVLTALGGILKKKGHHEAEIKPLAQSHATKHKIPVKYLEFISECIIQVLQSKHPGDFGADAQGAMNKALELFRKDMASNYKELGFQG
Test: BLI, antibody captured on AMC sensors, MYO protein in serial dilution

Kd: 4.56 nM
koff: 0.000118 s⁻¹
kon: 25900 M⁻¹ s⁻¹
B1: 实施例1的肌红蛋白单克隆抗体(WT) (antibody, mouse IgG1, kappa, V domains shown)
VH: QIQLVQSGPELKKPGETVKISCKASGYTYTEFSVHWVKQAPGKGLKWMGWINSETSEPTYGDDFKGRFAFSLETSASAAYLQINNLKNEDSATYFCARRAYYLFGPFTYWGQGTLVTVSA
VL: DIVLTQSPASLAVSLGQRATISCRASKSVDFNGDSYMNWHQQKPGQPPKLLIYAASQRESGIPARFSGSGSGTDFTLNIHPVEEEDAATYYCQHSNEEPYTFGGGTKLEIKR
notes: Recombinant antibody cloned from hybridoma 5G9 and expressed in CHO cells; Detected with goat anti-mouse IgG-HRP; also called WT抗体; 5G9 recombinant antibody
